Reference: patent publication US20160340439A1

Key:
Experiment in all cases: IP + mass spec of B16 melanoma proteins; ratio to alloIgG
[1] = molecular target: Arginine and glutamate-rich protein 1 (mouse) (UniProt Q3UL36)
[2] = molecular target: Mitochondrial inner membrane protein (mouse) (UniProt Q8CAQ8)
[3] = molecular target: Translocation protein SEC62 (mouse) (UniProt Q8BU14)
[4] = molecular target: Vacuolar protein sorting-associated protein 35 (mouse) (UniProt Q9EQH3)
[5] = molecular target: Nicalin (mouse) (UniProt Q8VCM8)
Chain of UniProt Q8VCM8 (Q8VCM8 43-563 limits assumed): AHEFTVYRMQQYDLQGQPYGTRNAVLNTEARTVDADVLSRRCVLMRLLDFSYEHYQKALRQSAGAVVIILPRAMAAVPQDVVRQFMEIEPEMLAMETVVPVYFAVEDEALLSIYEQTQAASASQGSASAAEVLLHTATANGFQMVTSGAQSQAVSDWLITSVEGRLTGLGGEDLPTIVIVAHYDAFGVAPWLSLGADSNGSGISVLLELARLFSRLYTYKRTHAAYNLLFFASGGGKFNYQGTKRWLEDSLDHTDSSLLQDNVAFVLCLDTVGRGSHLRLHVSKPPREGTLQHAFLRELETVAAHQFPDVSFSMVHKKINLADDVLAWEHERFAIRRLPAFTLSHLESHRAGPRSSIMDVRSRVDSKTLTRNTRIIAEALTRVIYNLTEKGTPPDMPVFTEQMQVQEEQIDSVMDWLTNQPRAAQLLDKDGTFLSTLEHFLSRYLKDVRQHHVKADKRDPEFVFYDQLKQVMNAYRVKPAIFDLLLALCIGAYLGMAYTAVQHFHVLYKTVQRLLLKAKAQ

[6] = molecular target: Angiomotin-like protein 2 (mouse) (UniProt Q8K371)
Chain of UniProt Q8K371 (Q8K371 whole entry): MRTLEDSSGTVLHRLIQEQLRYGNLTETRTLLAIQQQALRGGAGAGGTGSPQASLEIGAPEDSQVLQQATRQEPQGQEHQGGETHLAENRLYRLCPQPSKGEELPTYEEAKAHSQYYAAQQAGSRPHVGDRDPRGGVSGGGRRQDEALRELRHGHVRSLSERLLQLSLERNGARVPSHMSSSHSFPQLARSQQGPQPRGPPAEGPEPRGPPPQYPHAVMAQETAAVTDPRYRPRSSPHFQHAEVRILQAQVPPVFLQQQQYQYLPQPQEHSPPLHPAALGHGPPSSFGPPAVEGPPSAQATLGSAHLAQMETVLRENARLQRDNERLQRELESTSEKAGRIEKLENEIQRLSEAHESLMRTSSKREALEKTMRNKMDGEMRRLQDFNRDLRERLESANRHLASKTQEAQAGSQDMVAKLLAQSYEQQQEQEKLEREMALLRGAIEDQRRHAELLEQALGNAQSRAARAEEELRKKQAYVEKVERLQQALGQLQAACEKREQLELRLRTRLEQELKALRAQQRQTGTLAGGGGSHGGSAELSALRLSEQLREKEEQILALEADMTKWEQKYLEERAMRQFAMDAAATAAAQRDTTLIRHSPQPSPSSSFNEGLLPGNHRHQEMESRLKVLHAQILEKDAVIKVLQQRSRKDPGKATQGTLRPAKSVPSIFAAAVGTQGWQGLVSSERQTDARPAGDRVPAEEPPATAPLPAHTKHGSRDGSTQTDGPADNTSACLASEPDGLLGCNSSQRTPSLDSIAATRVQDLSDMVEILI

[7] = molecular target: Fibrous sheath-interacting protein 2 (mouse) (UniProt A2ARZ3)
[8] = molecular target: Disco-interacting protein 2 homolog B (mouse) (UniProt Q3UH60)
Chain of UniProt Q3UH60 (Q3UH60 whole entry, the tested form may be a part): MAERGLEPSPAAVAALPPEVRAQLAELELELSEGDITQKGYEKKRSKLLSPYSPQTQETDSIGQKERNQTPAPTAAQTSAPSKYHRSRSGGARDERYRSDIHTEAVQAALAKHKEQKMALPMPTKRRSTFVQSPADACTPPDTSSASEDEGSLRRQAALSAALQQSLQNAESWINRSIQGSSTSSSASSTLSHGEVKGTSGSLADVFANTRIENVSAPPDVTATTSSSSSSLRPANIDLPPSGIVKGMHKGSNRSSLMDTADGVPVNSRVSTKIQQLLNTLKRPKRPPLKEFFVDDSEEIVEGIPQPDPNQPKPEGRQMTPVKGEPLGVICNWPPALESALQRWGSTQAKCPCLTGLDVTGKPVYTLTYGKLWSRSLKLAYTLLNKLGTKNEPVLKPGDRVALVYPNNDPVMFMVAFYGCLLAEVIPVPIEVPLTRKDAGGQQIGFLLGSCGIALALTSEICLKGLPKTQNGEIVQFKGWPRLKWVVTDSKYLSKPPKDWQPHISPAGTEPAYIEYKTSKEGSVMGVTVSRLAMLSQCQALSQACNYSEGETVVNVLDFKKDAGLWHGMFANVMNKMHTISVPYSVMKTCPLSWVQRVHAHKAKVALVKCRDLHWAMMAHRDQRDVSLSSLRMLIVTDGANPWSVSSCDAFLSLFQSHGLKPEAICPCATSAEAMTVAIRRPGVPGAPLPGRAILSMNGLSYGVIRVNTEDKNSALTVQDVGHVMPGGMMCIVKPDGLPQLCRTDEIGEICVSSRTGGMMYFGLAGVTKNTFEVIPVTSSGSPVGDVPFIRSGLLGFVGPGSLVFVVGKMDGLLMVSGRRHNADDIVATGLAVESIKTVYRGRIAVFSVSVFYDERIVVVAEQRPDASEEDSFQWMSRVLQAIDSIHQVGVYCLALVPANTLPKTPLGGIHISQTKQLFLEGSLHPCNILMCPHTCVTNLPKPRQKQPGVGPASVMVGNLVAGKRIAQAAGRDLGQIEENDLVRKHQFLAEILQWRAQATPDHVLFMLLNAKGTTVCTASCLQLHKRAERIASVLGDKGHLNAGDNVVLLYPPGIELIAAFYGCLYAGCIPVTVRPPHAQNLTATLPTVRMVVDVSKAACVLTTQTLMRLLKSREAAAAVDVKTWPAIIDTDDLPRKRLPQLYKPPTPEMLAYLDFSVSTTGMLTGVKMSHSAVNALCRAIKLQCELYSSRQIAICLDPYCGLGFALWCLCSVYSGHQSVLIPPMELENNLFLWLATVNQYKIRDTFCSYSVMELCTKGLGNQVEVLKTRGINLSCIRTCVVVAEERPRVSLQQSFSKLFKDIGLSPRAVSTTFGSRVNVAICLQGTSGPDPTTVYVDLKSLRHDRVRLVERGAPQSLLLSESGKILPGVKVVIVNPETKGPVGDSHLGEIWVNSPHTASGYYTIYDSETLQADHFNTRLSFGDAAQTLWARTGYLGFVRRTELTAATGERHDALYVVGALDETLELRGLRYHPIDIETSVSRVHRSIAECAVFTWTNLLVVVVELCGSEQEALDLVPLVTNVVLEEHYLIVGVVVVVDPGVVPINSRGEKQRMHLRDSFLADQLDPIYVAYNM

[9] = molecular target: CDGSH iron-sulfur domain-containing protein 1 (mouse) (UniProt Q91WS0)
Chain of UniProt Q91WS0 (Q91WS0 whole entry, the tested form may be a part): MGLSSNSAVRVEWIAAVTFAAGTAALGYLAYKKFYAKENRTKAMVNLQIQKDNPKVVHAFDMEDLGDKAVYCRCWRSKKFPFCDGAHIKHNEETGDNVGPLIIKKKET

[10] = molecular target: Trifunctional enzyme subunit beta, mitochondrial (mouse) (UniProt Q99JY0)
Chain of UniProt Q99JY0 (Q99JY0 35-475 limits assumed): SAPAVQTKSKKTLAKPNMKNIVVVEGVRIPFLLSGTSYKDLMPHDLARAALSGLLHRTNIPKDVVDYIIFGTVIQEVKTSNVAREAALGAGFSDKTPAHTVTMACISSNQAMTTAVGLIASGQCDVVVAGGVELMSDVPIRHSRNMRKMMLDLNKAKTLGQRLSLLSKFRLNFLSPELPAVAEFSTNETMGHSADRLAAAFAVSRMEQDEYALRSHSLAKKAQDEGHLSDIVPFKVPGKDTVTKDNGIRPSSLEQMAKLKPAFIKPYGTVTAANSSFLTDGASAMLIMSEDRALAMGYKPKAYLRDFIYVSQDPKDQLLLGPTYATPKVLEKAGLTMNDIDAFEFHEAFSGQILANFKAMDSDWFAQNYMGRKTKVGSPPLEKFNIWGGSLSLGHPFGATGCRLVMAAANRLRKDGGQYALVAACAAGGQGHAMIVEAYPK

[11] = molecular target: Stromal cell-derived factor 2-like protein 1 (mouse) (UniProt Q9ESP1)
Chain of UniProt Q9ESP1 (Q9ESP1 29-221 limits assumed): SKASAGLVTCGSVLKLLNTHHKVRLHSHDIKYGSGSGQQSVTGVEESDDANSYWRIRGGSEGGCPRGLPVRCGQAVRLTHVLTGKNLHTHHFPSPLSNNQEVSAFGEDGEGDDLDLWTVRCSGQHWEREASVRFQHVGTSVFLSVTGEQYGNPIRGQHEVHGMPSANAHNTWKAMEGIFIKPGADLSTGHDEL

Chain of UniProt Q8BU14 (Q8BU14 whole entry): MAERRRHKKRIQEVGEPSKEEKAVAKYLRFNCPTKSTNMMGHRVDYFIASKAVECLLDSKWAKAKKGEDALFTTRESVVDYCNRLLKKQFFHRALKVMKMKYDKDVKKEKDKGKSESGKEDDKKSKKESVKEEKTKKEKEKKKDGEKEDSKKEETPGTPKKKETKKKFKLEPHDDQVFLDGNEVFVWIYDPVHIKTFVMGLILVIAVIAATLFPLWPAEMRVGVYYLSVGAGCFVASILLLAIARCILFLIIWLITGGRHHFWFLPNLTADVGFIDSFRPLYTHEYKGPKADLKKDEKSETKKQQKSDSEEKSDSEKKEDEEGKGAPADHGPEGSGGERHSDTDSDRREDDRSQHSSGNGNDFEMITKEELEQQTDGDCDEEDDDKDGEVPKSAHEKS
Chain of UniProt Q8CAQ8 (Q8CAQ8 34-757 limits assumed): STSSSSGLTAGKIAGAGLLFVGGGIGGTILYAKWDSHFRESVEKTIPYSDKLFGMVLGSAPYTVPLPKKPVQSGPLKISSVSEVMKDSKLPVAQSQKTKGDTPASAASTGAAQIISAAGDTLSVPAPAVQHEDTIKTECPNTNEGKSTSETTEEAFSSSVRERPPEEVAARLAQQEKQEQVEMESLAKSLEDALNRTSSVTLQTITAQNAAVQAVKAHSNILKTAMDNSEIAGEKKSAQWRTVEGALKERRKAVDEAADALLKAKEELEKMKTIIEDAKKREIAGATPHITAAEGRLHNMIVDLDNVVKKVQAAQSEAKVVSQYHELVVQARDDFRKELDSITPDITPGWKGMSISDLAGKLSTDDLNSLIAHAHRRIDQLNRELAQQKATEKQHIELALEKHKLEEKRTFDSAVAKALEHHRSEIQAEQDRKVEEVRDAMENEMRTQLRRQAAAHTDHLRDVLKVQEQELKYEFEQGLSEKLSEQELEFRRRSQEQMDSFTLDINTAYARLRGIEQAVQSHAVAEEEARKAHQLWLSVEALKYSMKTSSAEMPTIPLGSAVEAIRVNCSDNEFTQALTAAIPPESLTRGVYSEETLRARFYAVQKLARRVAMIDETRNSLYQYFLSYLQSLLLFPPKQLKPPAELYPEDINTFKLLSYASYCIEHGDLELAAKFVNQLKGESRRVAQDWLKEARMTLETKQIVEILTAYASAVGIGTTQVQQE
Chain of UniProt Q3UL36 (Q3UL36 whole entry): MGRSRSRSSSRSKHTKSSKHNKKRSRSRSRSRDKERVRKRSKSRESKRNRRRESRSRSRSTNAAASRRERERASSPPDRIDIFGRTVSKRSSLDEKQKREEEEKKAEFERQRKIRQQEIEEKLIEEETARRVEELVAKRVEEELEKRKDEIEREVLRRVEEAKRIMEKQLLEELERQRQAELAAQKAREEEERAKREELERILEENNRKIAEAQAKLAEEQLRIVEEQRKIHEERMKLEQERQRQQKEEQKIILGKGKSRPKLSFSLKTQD

syn/allo ratio [1]: 2 | syn/allo ratio [2]: 2.99 | syn/allo ratio [3]: 4 | syn/allo ratio [4]: 2 | syn/allo ratio [5]: 2 | syn/allo ratio [6]: 6 | syn/allo ratio [7]: 9 | syn/allo ratio [8]: 4 | syn/allo ratio [9]: 2 | syn/allo ratio [10]: 2.6 | syn/allo ratio [11]: 3
Substance: syngeneic IgG (from sera of C57B1/6 mice) (antibody)
